The text below walks through data of paper PMC3017643 (Journal of molecular biology, 2010).

Assay [1] addresses full-length β-catenin (residues 1–781) (murine) (UniProt Q02248). Kind of assay: ITC.
A further assay concerns the target β-catenin 1-781 (UniProt Q02248). Kind of assay: isothermal titration calorimetry. The settings on record: reference: non-phosphorylated Lef-1(1–63); sites S40.
Assay [2] has as its target T1, full-length β-catenin (residues 1–781) (murine, UniProt Q02248 1-781).
T1 sequence (looked up): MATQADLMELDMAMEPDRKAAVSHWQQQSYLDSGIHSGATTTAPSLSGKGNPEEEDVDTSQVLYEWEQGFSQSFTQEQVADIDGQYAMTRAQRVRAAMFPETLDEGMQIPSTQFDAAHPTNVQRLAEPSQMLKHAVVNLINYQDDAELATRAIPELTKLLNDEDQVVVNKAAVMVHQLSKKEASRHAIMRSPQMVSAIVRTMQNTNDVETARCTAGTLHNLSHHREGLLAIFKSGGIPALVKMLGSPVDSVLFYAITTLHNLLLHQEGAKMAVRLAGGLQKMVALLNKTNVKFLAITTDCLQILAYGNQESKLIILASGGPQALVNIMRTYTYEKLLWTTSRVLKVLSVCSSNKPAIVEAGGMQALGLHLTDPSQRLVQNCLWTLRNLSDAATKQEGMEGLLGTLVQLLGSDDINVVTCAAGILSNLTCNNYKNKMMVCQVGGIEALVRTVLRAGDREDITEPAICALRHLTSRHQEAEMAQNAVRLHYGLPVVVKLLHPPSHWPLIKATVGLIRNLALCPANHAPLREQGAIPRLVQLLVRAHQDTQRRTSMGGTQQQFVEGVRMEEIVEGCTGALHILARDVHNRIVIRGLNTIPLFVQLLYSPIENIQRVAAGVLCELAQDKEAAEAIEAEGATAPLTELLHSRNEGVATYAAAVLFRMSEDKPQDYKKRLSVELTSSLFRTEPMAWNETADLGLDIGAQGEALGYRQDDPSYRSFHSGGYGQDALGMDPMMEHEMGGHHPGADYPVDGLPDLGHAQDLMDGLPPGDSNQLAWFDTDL
Description: ITC.

For the molecule “CK2-phosphorylated murine Lef-1(1–63), HPLC-separated, as used for ITC (from UniProt P27782 1-63) (domain or fragment)”, in assay [1], the Kd amounted to 35 nM and the dH is -12.3 kcal/mol.
With “Lef-1 1-63 (from UniProt P27782) CK2-phosphorylated, HPLC-purified pLef-1(1–63)”, the KD entry with β-catenin 1-781 is reported as “same; reference 23 (± 3) × 10−9”.
In turn, “murine Lef-1(1–63), non-phosphorylated, as used for ITC (from UniProt P27782 1-63) (domain or fragment)” registered a dH in assay [1] of -13.1 kcal/mol.

B1: human TCF4 β-catenin binding region, residues 1–57 (domain or fragment, UniProt Q9NQB0 1-57, looked up)
chain: MPQLNGGGGDDLGANDELISFKDEGEQEEKSSENSSAERDLADVKSSLVNESETNQN
In assay [2], B1 showed a Kd of 16 nM and a dH of -12.5 ± 0.1 kcal/mol.
